Among the data in patent US20090275637, “PROTEIN TYROSINE PHOSPHATASE INHIBITORS” (published 2009) are Kd and Ki values, retold here.

The target in data set [1] is T1, PTP1B catalytic domain (321 residues), GST fusion (Homo sapiens, UniProt P18031 P18031:1-321).
T1 sequence: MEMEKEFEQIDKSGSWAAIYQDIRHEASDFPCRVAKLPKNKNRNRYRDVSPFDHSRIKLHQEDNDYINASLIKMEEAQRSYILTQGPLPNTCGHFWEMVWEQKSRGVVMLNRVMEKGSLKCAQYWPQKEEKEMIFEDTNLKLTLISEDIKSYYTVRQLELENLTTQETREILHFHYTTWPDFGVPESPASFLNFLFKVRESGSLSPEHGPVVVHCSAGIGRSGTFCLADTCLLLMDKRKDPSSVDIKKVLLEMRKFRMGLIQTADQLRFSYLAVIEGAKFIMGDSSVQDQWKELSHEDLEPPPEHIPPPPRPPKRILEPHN
The data set is described as follows: filter; 20 mM HEPES pH 7.2, 5 mM MgCl2, 125 mM NaCl, room temperature. Particulars: tags: GST; hairpin. The protocol: Binding assays were carried out in triplicate at 12 different PTP1B concentrations using a Schleicher & Schuell Milliblot™ apparatus with 0.45 μm BioRad TransBlot® nitrocellulose layered on top of a Hybond™-N+nylon transfer membrane. Radiolabelled RNA at 100-500 pM was heated to 75° C. for 3 minutes then cooled to room temperature before mixing with a 2× serial dilution of the target and also a no-target control. 150 μL of the mixtures at each of the 12 enzyme concentrations were pre-incubated at room temperature for 60 minutes before applying to the pre-washed membrane to allow the RNA complex to reach equilibrium (Waley, S. G. (1993) The Biochemical journal 294 Pt 1, 195-200). Following addition of 40 μL per well of each mixture to three separate wells of the Milliblot™ apparatus, the filter was washed 3 times. The dilutions and all washes used the binding buffer described above. Activity of the filters was measured using a FujiFilm BAS-1800II phosphorimager and relative density used to estimate the fraction of radiolabelled RNA retained on the nitrocellulose and nylon membranes.
A binding assay with a concentration of 2 nM of the radiolabelled C13M21 nucleic acid ligand against PTP1B-GST was performed with the protein concentration ranging from 1 nM to 512 nM in a 2:1 serial dilution. […]

Data set [2] addresses T2, PTP1B (Homo sapiens, UniProt P18031 P18031:1-321).
T2 sequence: T1 sequence
As to the kind of experiment: inhibition; 125 mM NaCl, DiFMUP, competitive; 20 nM from Lineweaver-Burk fit. Particulars: tags: N-terminal His6; R&D Systems 1366-PT-050; hairpin. Here is the method:
In parallel with a no-RNA control, the activity in the presence of 30 nM C13M21 was measured in duplicate for varying concentrations of DiFMUP. […] Fitting of the data in the presence of C13M21 gave a Kₘ*of 63 μM, which equates to a Kᵢ of 20 nM. The fitted Vₘₐₓ in the presence of the inhibitor was equal to or slightly greater than the no-RNA Vₘₐₓ, indicating the presence of competitive inhibition.
(§1) To further refine the estimate of Kᵢ, an assay was run at a fixed DiFMUP concentration of 20 μM with the C13M21 and the full-length C13 nucleic acid ligand, each premixed with the PTP1B at […] in the 125 mM NaCl buffer. […] Nonlinear fitting gives an estimate of the IC₅₀ of […]. Based on a Kₘ of 25 μM, and assuming competitive inhibition, this gives a Kᵢ of 45 nM for C13M21 and a Kᵢ of 7 nM for the full-length nucleic acid ligand at 125 mM NaCl concentration.

The target of data set [3] is T2, PTP1B. As to the kind of experiment: inhibition; 20 mM NaCl, 5 uM DiFMUP; p151 quotes about 600 pM. Particulars: tags: N-terminal His6; R&D Systems 1366-PT-050; hairpin.
Data set [4] deals with T2, PTP1B. The data set is described as follows: inhibition; parent about 35 nM. As to conditions: tags: N-terminal His6; R&D Systems 1366-PT-050. Here is the method: Several single-base modifications of the M21 nucleic acid ligand were also tested to determine whether the changes would affect the level of inhibition. With reference to the postulated secondary structure shown in FIG. 9, the sequence at each position on the unpaired regions was modified at positions 31 through 37 and positions 42 through 46. […] From this, it appears that the other nucleotides are either critical in the contact with the PTP1B molecule or in shaping the nucleic acid ligand into a conformation that binds with the PTP1B.

Data set [5] has as its target T2, PTP1B. As to the kind of experiment: inhibition; 125 mM NaCl, DiFMUP. Particulars: tags: N-terminal His6; R&D Systems 1366-PT-050; hairpin. The protocol: as §1
Data set [6] has as its target T2, PTP1B. The data set is described as follows: inhibition; 20 mM NaCl, 5 uM DiFMUP. Particulars: tags: N-terminal His6; R&D Systems 1366-PT-050; hairpin.

A word on the Kd: it is the constant that tells how readily two partners part at equilibrium. Read a high Kd as weaker binding. In general, Ki refers to a measure of affinity in units of concentration, obtained from inhibition or displacement. On to GGGAAUUCUGUGAUCAAUUUGGCAAUCCGCCACACGAGUUC (ssRNA) [C13M21], for which the Kd in data set [1] worked out at 28 nM. Moreover, the values for the Ki with PTP1B [2] and in the data set with PTP1B [3] were 45 nM and 0.3 nM, respectively.

GGGAAUUCUGUGAUCAAUUUGGCAAUCCGCCACACUAGUUC (ssRNA, [36]) [C13M21 G54U]: the inhibition constant Ki in the data set with PTP1B [4] is 48 nM. The same measure, in the same setting: the result for GGGAAUUCUGUGAUUAAUUUGGCAAUCCGCCACACUAGUUC (ssRNA, [15,36]) [C9 shortened to M21 range] reads around 250 nM.

B1: C13 (ssRNA)
RNA: GGGAAUGGAUCCACAUCUACGAAUUCUGUGAUCAAUUUGGCAAUCCGCCACACGAGUUCACUGCAGACUUGACGAAGCUU
For B1, the results for the Ki with PTP1B [5] and with PTP1B [6] were 7 nM and below 0.1 nM, respectively.
